Experimental data from publication PMC2835468 (Matrix biology : journal of the International Society for …, 2009).
Read-outs that look alike come from different tables or passages of the source.

Legend:
Assay in all cases: enzyme inhibition kinetics
[1] = molecular target: T1, ADAMTS4-4 (human ADAMTS-4 deletion mutant, C-terminal FLAG-tag) (human, UniProt O75173 213-519)
T1 sequence (looked up): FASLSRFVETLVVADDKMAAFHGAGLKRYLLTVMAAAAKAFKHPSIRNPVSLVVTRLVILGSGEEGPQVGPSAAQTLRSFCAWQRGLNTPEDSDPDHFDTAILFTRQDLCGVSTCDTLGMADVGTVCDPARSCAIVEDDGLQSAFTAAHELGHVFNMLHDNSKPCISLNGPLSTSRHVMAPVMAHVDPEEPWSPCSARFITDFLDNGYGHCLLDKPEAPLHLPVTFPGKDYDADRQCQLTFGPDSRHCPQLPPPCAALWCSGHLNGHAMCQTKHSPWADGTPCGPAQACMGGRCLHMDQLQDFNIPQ

[2] = molecular target: T2, ADAMTS4-1 (full-length human ADAMTS-4, C-terminal FLAG-tag) (human, UniProt O75173 213-837)
T2 sequence (looked up): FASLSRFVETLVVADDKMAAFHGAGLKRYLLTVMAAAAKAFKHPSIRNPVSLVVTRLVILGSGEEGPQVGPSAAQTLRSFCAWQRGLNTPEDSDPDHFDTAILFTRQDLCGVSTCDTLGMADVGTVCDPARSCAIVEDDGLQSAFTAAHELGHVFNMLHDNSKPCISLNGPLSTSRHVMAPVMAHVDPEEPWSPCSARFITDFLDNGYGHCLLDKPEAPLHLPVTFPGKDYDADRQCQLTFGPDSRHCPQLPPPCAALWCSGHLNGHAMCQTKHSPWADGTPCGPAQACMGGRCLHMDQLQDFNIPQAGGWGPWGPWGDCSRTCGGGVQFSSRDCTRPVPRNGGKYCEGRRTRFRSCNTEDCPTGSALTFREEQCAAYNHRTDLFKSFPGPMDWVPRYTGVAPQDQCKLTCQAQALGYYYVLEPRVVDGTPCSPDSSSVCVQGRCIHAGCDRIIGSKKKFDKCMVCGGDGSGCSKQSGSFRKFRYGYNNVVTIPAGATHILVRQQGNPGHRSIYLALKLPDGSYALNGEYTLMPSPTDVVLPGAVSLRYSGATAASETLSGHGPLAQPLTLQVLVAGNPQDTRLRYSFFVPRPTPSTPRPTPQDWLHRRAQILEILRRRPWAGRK

[3] = molecular target: T3, ADAMTS4-3 (human ADAMTS-4 deletion mutant, C-terminal FLAG-tag) (human, UniProt O75173 213-575)
T3 sequence (looked up): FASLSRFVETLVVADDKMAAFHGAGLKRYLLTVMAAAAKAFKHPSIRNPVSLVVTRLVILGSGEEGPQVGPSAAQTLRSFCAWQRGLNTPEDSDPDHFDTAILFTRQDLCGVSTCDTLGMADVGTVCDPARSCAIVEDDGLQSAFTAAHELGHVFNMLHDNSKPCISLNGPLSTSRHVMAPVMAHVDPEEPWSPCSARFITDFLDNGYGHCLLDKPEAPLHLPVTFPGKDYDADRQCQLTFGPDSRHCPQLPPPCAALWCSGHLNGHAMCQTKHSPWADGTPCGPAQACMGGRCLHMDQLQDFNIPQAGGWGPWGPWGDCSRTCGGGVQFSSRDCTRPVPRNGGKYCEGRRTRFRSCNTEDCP

[4] = molecular target: T1, ADAMTS4-4 (human ADAMTS-4 deletion …); remark: listed apart in the source
[5] = molecular target: T4, Catalytic domain of human MMP-1 (MMP-1cat) (human, UniProt P03956 100-269)
T4 sequence (looked up): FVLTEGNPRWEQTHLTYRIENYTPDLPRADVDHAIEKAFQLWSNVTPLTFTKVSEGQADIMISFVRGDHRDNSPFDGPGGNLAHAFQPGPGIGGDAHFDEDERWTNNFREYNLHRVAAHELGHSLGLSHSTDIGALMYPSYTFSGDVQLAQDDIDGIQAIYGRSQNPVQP

[6] = molecular target: Catalytic domain of human MMP-3 (MMP-3cat) (human, UniProt P08254 100-272)
Chain of Catalytic domain of human MMP-3 (MMP-3cat) (P08254 100-272): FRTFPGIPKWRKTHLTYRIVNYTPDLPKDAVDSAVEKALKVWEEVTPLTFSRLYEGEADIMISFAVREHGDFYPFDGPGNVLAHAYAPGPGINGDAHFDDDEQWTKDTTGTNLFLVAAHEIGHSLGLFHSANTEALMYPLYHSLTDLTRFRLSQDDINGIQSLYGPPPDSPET

B1: FLAG-tagged glycosylated human TIMP-3 (full-length tissue inhibitor of metalloproteinases 3), expressed in HEK293 (natural protein, UniProt P35625 24-211, looked up)
chain: CTCSPSHPQDAFCNSDIVIRAKVVGKKLVKEGPFGTLVYTIKQMKMYRGFTKMPHVQYIHTEASESLCGLKLEVNKYQYLLTGRVYDGKMYTGLCNFVERWDQLTLSQRKGLNYRYHLGCNCKIKSCYYLPCFVTSKNECLWTDMLSNFGYPGYQSKHYACIRQKGGYCSWYRGWAPPDKSIINATDP
modifications: glycosylated (only the 27 kDa glycosylated form remained after purification; single N-glycosylation site in the C-terminal domain)
Binder B1 has a Ki [1] of 0.38 nM, a Ki [2] of 0.22 nM and a Ki [3] of 0.4 nM. It also gave a Ki [4] of 0.51 nM, a Ki [5] of 1.1 nM and a Ki [6] of 1 nM.
